Reference: a protein production outcome set (Wang et al. 2014)

Experiment: label from the status in PepcDB records

Protein production, failed:
MFNFAVSRESLLSGFQWFFFIFCNTVVVPPTLLSAFQLPQSSLLTLTQYAFLATALACFAQAFCGHRRAIMEGPGGLWWGTILTITLGEASRGTPINDIATSLAVGIALSGVLTMLIGFSGLGHRLARLFTPSVMVLFMLMLGAQLTTIFFKGMLGLPFGIADPNFKIQLPPFALSVAVMCLVLAMIIFLPQRFARYGLLVGTITGWLLWYFCFPSSHSLSGELHWQWFPLGSGGALSPGIILTAVITGLVNISNTYGAIRGTDVFYPQQGAGNTRYRRSFVATGFMTLITVPLAVIPFSPFVSSIGLLTQTGDYTRRSFIYGSVICLLVALVPALTRLFCSIPLPVSSAVMLVSYLPLLFSALVFSQQITFTARNIYRLALPLFVGIFLMALPPVYLQDLPLTLRPLLSNGLLVGILLAVLMDNLIPWERIE
MFNGMVRTIRDSVVGTYPSCHVSSRLEERRAKQRAMRQERRRKPDKPDDFVTYEDSGSDEETPQQQEEVLNTSYNLCDYLRSRESGLRDRRSVNVEYTSRYVLTHDMLRETQISLGYINKVFCSKWLSSRQVVFGTKCNKLLVYDVNMRRVDAIPTLSNSRANHPEVQGGLHAIELSPSRSFLATGARNSSDIAVYRLPTLDPVCVGEGGHRDLIMGMCWLDDQFLVSGSKDSRMALWRINEDHMEFPDGGEEACPTFATIHPLSVKEVRTAQRIRSLCFNKEFKEIAALSLNGYIHIFNAETFKQTLSRKLPNCQDNVSIAYHSDGLYAVGCRSYTILLDARTLQTIKKITSRYSGCGIRATSFEGNLLTVGTGLGMLLFYDIRAGKYLESSVNASRTVALKCSKGIVYPEDEMDGFQQVKYVPAIYTHCYDSTRMRLFAAGGPLPATLVGNYAGVWQ
MFNNDRLLVQILLLALFGACLWVMAPFWSALVWGAVLAFASWPLMRLLTRWFKGRESLAALVMCLCWMLLVAAPLVWLGFNLADHVRDATALIKDIQVDGLPDPPQWLAGIPLVGERLVGLWTTIDQQGAAFMTTVKPYLGEVGNWLLARSAQIGGGILELTLSIVFAFFFYRDGPRLAAFVLSLLERLIGDRAQYYLDLVAGTVQRVVNGVIGTAAAQALLALIGFLIAGIPGALVLGILTFLFSLIPMGPPLVWLPATAWLVWQGEYGMAIFLGIWGMFVISGVDNVLKPYLISRGGNLPLVIVLLGVFGGLLAFGFIGLFIGPTLLAVAYSLLTDWVGSERARNPR
MFPFGPHSPGGDETAGAEEPPPLGGPAAASRPPSPAPRPASPQRGADAASPPPVAGSPRLPGGPAVSPAERAGEFAAPGALELSAATASASQAKLSPSSSPRRRSRPDWRAGGRSRQGLGAGLGGPGARLFGWLRERSLGRGLFVDPARDNFRTMTNLYGSIHPADSVYLSTRTHGAVFNLEYSPDGSVLTVACEQTEVLLFDPISSKHIKTLSEAHEDCVNNIRFLDNRLFATCSDDTTIALWDLRKLNTKVCTLHGHTSWVKNIEYDTNTRLLVTSGFDGNVIIWDTNRCTEDGCPHKKFFHTRFLMRMRLTPDCSKMLISTSSGYLLILHELDLTKSLEVGSYPILRARRTTSSSDLTTTSSSSGSRVSGSPCHHNDSNSTEKHMSRASQREGVSPRNSLEVLTPEVPGERDRGNCITSLQLHPKGWATLLRCSSNTDDQEWTCVYEFQEGAPVRPVSPRCSLRLTHYIEEANVGRGYIKELCFSPDGRMISSPHGYGIRLLGFDKQCSELVDCLPKEASPLRVIRSLYSHNDVVLTTKFSPTHCQIASGCLSGRVSLYQPKF
MFPLTEENKHVAQLLLNTGTCPRCIFRFCGVDFHAPYKLPYKELLNELQKFLETEKDELILEVMNPPPKKIRLQELEDSIDNLSQNGEGRISVSHVGSTASKNSNLNVCNVCLGILQEFCEKDFIKKVCQKVEASGFEFTSLVFSVSFPPQLSVREHAAWLLVKQEMGKQSLSLGRDDIVQLKEAYKWITHPLFSEELGVPIDGKSLFEVSVVFAHPETVEDCHFLAAICPDCFKPAKNKQSVFTRMAVMKALNKIKEEDFLKQFPCPPNSPKAVCAVLEIECAHGAVFVAGRYNKYSRNLPQTPWIIDGERKLESSVEELISDHLLAVFKAESFNFSSSGREDVDVRTLGNGRPFAIELVNPHRVHFTSQEIKELQQKINNSSNKIQVRDLQLVTREAIGHMKEGEEEKTKTYSALIWTNKAIQKKDIEFLNDIKDLKIDQKTPLRVLHRRPLAVRARVIHFMETQYVDEHHFRLHLKTQAGTYIKEFVHGDFGRTKPNIGSLMNVTADILELDVESVDVDWPPALDD
MFQDPTDEYIRTITAHCDLAGKEVLEVGCGTGRITRDLARHARRVVAVDPDETALAKARSAVPAPNVQFLPMPDGVLHFPPASFDVVIHTLSLHHVPLDRMNESLRAAAGLVRDGGVIVVVEPGDGGSFTEAKERFGAGSGDERPGREAAIRAMHGLDGWTVGETVLFRVRFLFADEDDFIATKLPGFGEKPEAFQQEVREFLARHRTAEGVVLDAGRRLNVLRRG
MFQSKSRTSLTNKKTLLFGLISVFLCGMGFSIIMPVVPFLVTPYVTNASDQALMVTLLTSVYAFCVFFAAPGLGALSDRFGRRPVLLICFIGSAIGYFIFGLGGALWVLFLGRIIEGITGGSISTLFAFFADITPQEERTKYFGWVSAAAGAGAALGPAFGGLLAHFGYAMPFFFGATITFINFLFGYFYMPESLDDANRLKRIPLMRLNPFSQLLNILTIKNLGRLLIAAFFIWVPNGSLQAVMSQFAIDSFSWKPALIGMMFSIMGIQDILSQAFVMPKLLIRLTDKQIAVLGMIAEIIGYSLIATSSIFTLAPLLVIGMFVFGFGDSIFGPSFNGMVSKAASASEQGRIQGGSQAIQSLARIIGPIIGGQIYITLGHAAPAIMGVLLITVAIFILYKKTSLAK
MFRPPSIKDAKKIWELIGRCKPLDINSPYCYALIGRDFFDSSIVYEEEGRIKGVVIGYLRPRAPERLFVWQVAIEAKSRGKGIAKRAIEAILKNLERKGHCIQAIEATYTPSNLASKALFHALGREWKVVWIEENFLEGALLSAQEAHEEEWLITLPFSSEALGVQGANHANL
MFSGCVERSTRVLQDQEGDTVTSSPAGNKLPNINGLRDSNPRHSLGYRVQHRARTVVASVIVAMLVFAGTAAAATWLDVDNVIQHQKVDVIGQGSVSAEPTIIDPNSGKPIEILLLGQDSRDGEGNQAIGGDMTGNHQADTAMVLQISADRSAINLVSIPRDSLVDVPQCETSKGTIPAQYGVMFNSIFAGAYQTGGDLASAASCTLNAVNSLTGLNIQNFIVVDFAGLVKMIDAIGGVDICVPQDIDDPYSTLQLSKGMQHLDGTQATQYARTRYTLGDGSDTARTTRQQYLIKQLMSEALSKNLFTDTAQLYQLAKSALESLNISEGMADTAALVGLAMSLKNFNMSHLYTQTVPVVAAPSDPNRSVWADNADEVWAKMREGKSLFESTETNATSTDSTTTDGTTESQNTDENSGEQAQSTETPDATTGLITRADGTLIDPNTGGTVDPEDGSIHDATTGQYIGIADRYLNATVCAVPAKN
MFSLKNYSPSPLLSAKAKEYLVFTLVTLTIVVAGTLLFLFDPASSKLFPPSPFRSLTGLYCPGCGTLRALHQLLHGNLVGAFGLNPLMMISLPFMIYSYVAYGLKTINGRTLLVWFVPPKVIWFILQAILAYWVARNIPFAPFSWLAP
MFSNQYIQQRIHKANSLREEGKNPYQNGLKRSLTNAAFLEKYAYVKGLEEPKDKEKCESIVGRVKLLRLMGKACFIKVEDESTILQVYVSQNELNDEFKSLKKHLEVGDIVLVKGFPFATKTGELSIHALEFHILSKTIVPLPEKFHGLSDIELRYRQRYLDLIVNPSVKDVFKKRSLIVSSVRKFFEMEGFLEVETPMMHPIPGGANARPFITYHNALEVERYLRIAPELYLKRLIVGGFEAVFEINRNFRNEGMDHSHNPEFTMIEFYWAYHTYEDLIELSKRLFDYLLKTLNLDSKIIYNDMEVDFNQTSVISYLDALETIGGISKDILEKEDRLLAYLLEQGIKVEPNLTYGKLLAEAFDHFVEHQLINPTFVTQYPIEISPLARRNDSNPNIADRFELFIAGKEIANGFSELNDPLDQLERFKNQVAEKEKGDEEAQYMDEDYVWALAHGMPPTAGQGIGIDRLVMLLTGAKSIKDVILFPAMRPVKNDFNVESEE
MFSPQAYLIFNMRKPPFDNIKVRQAVMHAFNRKLVVDNIFFGLGKISTSPFVPTEMFFDKDIPAIPFDMKKARALIKESGINPGDYTIRQLSFPYGATWDRLGEYTKQALEQLGFKVNVESTDAGGWASRTGNWDFDLTTTYSYQYGDPALGVQRLYVTSNIVKGSPFANMQGYSNPESDKLWEQAAAEVDPAKRQELYNKIQALLVAEVANGFLVDME
MFSRKDIIVLGMMIFALFLGAGNIIFPPMEGFSSGQHWTSASLGFVLTGVLMPFITLVVVAILGRGEELTKDLPKWAGTGFLVILYLTIGSTFAMPRITNVAYEMAWLPLGLTENNANVRFVFSLIFNLIAMGFMISPNTIISSVGKFMTPALLVLLIAVAITVFISPLSEIQAPSNAYENSHSLLIGLTSGYQTMDVLAAIAFGGIVARALSAKNVTKTKDIVKYTISAGFVSVILLAGLYFSLFYLGATSAAVAEGATNGGQIFSRYVNVLFGSAGTWIMAGIIVLASLTTLVGVTSASADYFSKFSVRFSYPFWAALFTAMTITVSQYGLTDLLRITIPALLLIYPVAIVLVLLQFLRKKLPSIKFTYNSTLLVTVCFSLCDSLNNVKMLPESINSLLKHFPLSSEGMAWLVPTLVMLVASIFIGKALHKTHS
MFTDLDLALFFIIIFIVLFIGYIAYFWRKPDDIHKHGEWSLGGRRFGTVVVWFLLGGDLYTAYTLIAVPGAAATPGIGGGAFAMFAITYGIMIYPIVYGTMPRLYNVSKKRGYITAADFVKDRFSSRFLAMLIALTGVLAELPYIALQITGIKYVLASLSLPISISLIIAFLLVAGFTFVSGLRGPALTAIIKDAIIWAAVLVIIVYIPLKLHGFGNIFSKAATISPNLLDISPTIDIGYVSLALGSALALFLYPHAVTGTLGSKDVKTIKRNAALLPLYNVLLMFVAIIGIMSVVYFNAYPKVSSEALPLLVLHVFPSTFTAFAFAAIVVGSIVPASIMALASANLLTRNLYLEYINPNATEKAQTNLSRVLVVVVIVAALAFSLVPAASGEIVYLQTIGGAIIMQTLPSVYLALFTRKLNKYPVGLGWLAGLATTMILLVDLHFKTSLYKGFFFMYVGIIALLINLAVVGLGMLIMAAMHRIKNEGIIEDHEFLDE
MFTTTSFPDFDSAAQATLTYLHQRMGLSLWMITRTEVDNWIVLQAQDNGYGVKRGDVFHWPDSFCSRMVRGEGPHIAPQSNLVEAYRNAPIAQQVDIGAYVGVPITYGNGSLFGTLCAIDPEIQPDSLVDELPLVELIAQLLSTILDFFLKAEIASRREEYQQLLKERDGTTGFYSLSGWEKLLASEEIRCQKFGFPVSVIIVEVEAAEPKGEEPINDLILQRAAKIIKTVCRQDDFCARIGEREFAILCIECHISQADFIRERLALGFEQGKITADIGIGERSPEKGLLDAMETAKSAAHEQKKFRVKTEG
MFVAFNFNKIESITTEKEFKIILNDQIALGKIPDFSKIKITIKVNKDDLKYLDLNKIILFIEASSIKIPGSYKLPIKIKNLNSIHIAEYKLSKTNVLLNLDNKVSKLVKIEPKFKLEHHHHHH
MFVAREHELQVLEKLFTSDSFEMVVLYGRRRVGKTALIDEFVKDKRVLYFTAIQQSAKMNLEDFSRAALSFFGMPDSTPSFGGWSDALSFVAERAAQTDERMVFVFDEFPYAAAAEPALPSMLQIAIDHGFLATKVTMILSGSNEGFMENDVLGRKSPLYGRRTAQIRLLPFDYADAAKFLTNTSPQELVQYYATFGGTPYYLARIQEADGFESNVLRLMFDNLGVLREEPMMLLRQELREPASYYSILQSIAGGNSSPKLIAEHAGVGSDSIGAYLKTLVDLRLIERKVPFGEDPSKSRKGMYVVSDPFFAYWFRFVGRNMSILDGNISEEVTSRLAFGPAFDTYVGQQFETICLQWLIRNNAMGNLPFVATQFGKWWGNDPIAHEQTDIDVIAADSLDKTILFGECKWRNSFNETEAIEKLHQRAGLVRGYQAGNAWLMLFTKNPVSESTRTRYMDDERMVFVSAEELYTALEHHHHHH
